Laboratory results as given in the supplement of paper PMC7877785.
± gives the uncertainty stated by the source.

Experiment: self-splicing fitness, log relative to wild type (ln ratio); higher = more splicing; Tetrahymena group I intron in knt gene, E. coli kanamycin selection, DiMSum; sequences stand for … in CUCUCU…GGAGGGAAAAGUUAUCAGGCAUGCACCUGGUAGCUAGUCUUUAAACCAAUAGAUUGCAUCGGUUUAAAAGGCAAGACCGUCAAAUUGCGGGAAAGGGGUCAACAGCCGUUCAGUACCAAGUCUCAGGGGAAACUUUGAGAUGGCCUUGCAAAGGGUAUGGUAAUAAGCUGACGGACAUGGUCCUAACCACGCAGCCAAGUCCUAAGUCAACAGAUCUUCUGUUGAUAUGGAUGCAGUUCACAGACUAAAUGUCGGUCGGGGAAGAUGUAUUCUUCUCAUAAGAUAUAGUCGGACCUCUCCUUAAUGGGAGCUAGCGGAUGAAGUGAUGCAACACUGGAGCCGCUGGGAACUAAUUUGUAUGCGAAAGUAUAUUGAUUAGUUUUGGAGUACUCGUGGUCG
In short: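 DiMSum derived fitness as the error-weighted combination of fold changes across replicates, kanamycin versus no kanamycin, normalised to wild type. E. coli BL21(DE3) held the library, which randomised all eight P1ex-region intron nucleotides within the knt kanamycin-resistance gene on pET-22b(+). Six replicate transformations grew overnight at 37°C or 30°C on LB agar with or without 25 μg/mL kanamycin, also containing 100 μg/mL carbenicillin, 50 μM IPTG and 0.2% rhamnose, and pooled colonies were amplicon-sequenced on an Illumina HiSeq 2500.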

Sequence	self-splicing fitness (ln) (30 °C)	self-splicing fitness (ln) (37 °C)
AGCGAGCAAUAUUACGCUCU	-3.64 ± 0.35	-2.61 ± 0.29
AGCGAGCAAUAUUACGGCUA	-0.634 ± 0.19	-0.479 ± 0.13
AGCGAGCAAUAUUACGGGCC	-3.58 ± 0.47	-2.88 ± 0.43
AGCGAGCAAUAUUACGUAUU	-3.54 ± 0.17	-1.79 ± 0.16
AGCGAGCAAUAUUACGUCGA	-2.82 ± 0.27	-2.3 ± 0.28
AGCGAGCAAUAUUACGUUAC	-3.84 ± 0.21	-2.26 ± 0.23
AGCGAGCAAUAUUACGUUGA		-2.11 ± 0.16
AGCGAGCAAUAUUACGUUGC		-3.69 ± 0.42
AGCUAGCAAUAUUACGACAG	-2.36 ± 0.21	-1.64 ± 0.24
AGCUAGCAAUAUUACGACAU	-0.509 ± 0.012	-0.147 ± 0.032
AGCUAGCAAUAUUACGACCA	-0.512 ± 0.17	-0.124 ± 0.17
AGCUAGCAAUAUUACGAGAG	-2.83 ± 0.15	-3.13 ± 0.28
AGCUAGCAAUAUUACGAGCG	-0.417 ± 0.085	-0.0421 ± 0.11
AGCUAGCAAUAUUACGAGGG	-3.75 ± 0.21	-1.34 ± 0.14
AGCUAGCAAUAUUACGAGUC	-3.89 ± 0.22	-2.08 ± 0.19
AGCUAGCAAUAUUACGAUCC	0.0246 ± 0.14	0.559 ± 0.16
AGCUAGCAAUAUUACGAUCU	0.121 ± 0.12	0.532 ± 0.13
AGCUAGCAAUAUUACGAUUC	-1.8 ± 0.11	-0.417 ± 0.15
AGCUAGCAAUAUUACGAUUG	-2.89 ± 0.24	-1.98 ± 0.23
AGCUAGCAAUAUUACGCAAA	-1.8 ± 0.18	-2.24 ± 0.24
AGCUAGCAAUAUUACGCAUC	-2.95 ± 0.36	
AGCUAGCAAUAUUACGCAUG	-2.12 ± 0.16	-1.06 ± 0.12
AGCUAGCAAUAUUACGCCAA	-1.7 ± 0.27	-1.75 ± 0.2
AGCUAGCAAUAUUACGCCCA	-1.5 ± 0.21	-0.441 ± 0.35
AGCUAGCAAUAUUACGCCCC	-0.339 ± 0.24	-0.157 ± 0.34
AGCUAGCAAUAUUACGCGAC	-3.48 ± 0.47	-2.38 ± 0.43

Sequence	self-splicing fitness (ln) (30 °C)	self-splicing fitness (ln) (37 °C)
AGCUAGCAAUAUUACGCUCA	-1.67 ± 0.25	-2.11 ± 0.37
AGCUAGCAAUAUUACGGACG	-0.719 ± 0.075	-0.105 ± 0.1
AGCUAGCAAUAUUACGGACU	8.42e-05 ± 0.097	0.516 ± 0.12
AGCUAGCAAUAUUACGGCAG	-1.19 ± 0.1	-1.08 ± 0.12
AGCUAGCAAUAUUACGGCGC	-1.1 ± 0.093	-0.362 ± 0.14
AGCUAGCAAUAUUACGGCGG	-1.13 ± 0.12	-0.547 ± 0.14
AGCUAGCAAUAUUACGGUUA	-0.191 ± 0.067	0.383 ± 0.073
AGCUAGCAAUAUUACGUAGG	-3.29 ± 0.13	-1.27 ± 0.13
AGCUAGCAAUAUUACGUGCA	-0.188 ± 0.069	0.247 ± 0.096
AGGAAGCAAUAUUACGACAG	-2.74 ± 0.19	-1.64 ± 0.18
AGGAAGCAAUAUUACGACAU	-0.63 ± 0.014	-0.543 ± 0.033
AGGAAGCAAUAUUACGACGG	-1.98 ± 0.17	-0.95 ± 0.23
AGGAAGCAAUAUUACGAGAG	-3.03 ± 0.14	-2.29 ± 0.17
AGGAAGCAAUAUUACGAUUA	-1.47 ± 0.08	-1.21 ± 0.069
AGGAAGCAAUAUUACGAUUC	-1.41 ± 0.15	-2.53 ± 0.18
AGGAAGCAAUAUUACGCACA	-0.546 ± 0.13	0.104 ± 0.19
AGGAAGCAAUAUUACGCCAC	-2.13 ± 0.24	-2.64 ± 0.41
AGGAAGCAAUAUUACGCGGC		-1.98 ± 0.44
AGGAAGCAAUAUUACGCUAA	-1.19 ± 0.13	-1.89 ± 0.27
AGGAAGCAAUAUUACGCUCA	-0.332 ± 0.13	-0.339 ± 0.16
AGGAAGCAAUAUUACGCUGG	-3.46 ± 0.38	-1.08 ± 0.27
AGGAAGCAAUAUUACGCUUC	-2.44 ± 0.28	
AGGAAGCAAUAUUACGGAGC	-2.78 ± 0.21	-1.61 ± 0.3
AGGAAGCAAUAUUACGGGCA	-1.55 ± 0.21	-1.13 ± 0.23
AGGAAGCAAUAUUACGUAGA	-1.86 ± 0.099	-2.42 ± 0.15
AGGAAGCAAUAUUACGUGGA	-3.05 ± 0.19	-1.16 ± 0.13

Sequence	self-splicing fitness (ln) (30 °C)	self-splicing fitness (ln) (37 °C)
AGGAAGCAAUAUUACGUGGC		-3.3 ± 0.43
AGGAAGCAAUAUUACGUGUU	-3.8 ± 0.21	-0.935 ± 0.14
AGGAAGCAAUAUUACGUUAC	-2.66 ± 0.14	-3.18 ± 0.28
AGGAAGCAAUAUUACGUUAU	-3.44 ± 0.18	-1.6 ± 0.17
AGGAAGCAAUAUUACGUUCC	-2.96 ± 0.39	-2.59 ± 0.48
AGGCAGCAAUAUUACGAAGG	-1.9 ± 0.22	-1.56 ± 0.27
AGGCAGCAAUAUUACGACGG	-2.49 ± 0.16	-0.746 ± 0.22
AGGCAGCAAUAUUACGAGCC	-2 ± 0.14	-1.4 ± 0.21
AGGCAGCAAUAUUACGAGUC	-2.29 ± 0.14	-2.34 ± 0.2
AGGCAGCAAUAUUACGCAUC	-3.99 ± 0.19	-1.04 ± 0.11
AGGCAGCAAUAUUACGCGAG	-2.49 ± 0.13	-1.12 ± 0.13
AGGCAGCAAUAUUACGGAAU	-1.67 ± 0.057	-0.844 ± 0.084
AGGCAGCAAUAUUACGGAUC	-2.19 ± 0.1	-0.495 ± 0.099
AGGCAGCAAUAUUACGGAUU	-1.08 ± 0.077	0.356 ± 0.098
AGGCAGCAAUAUUACGGCUC	-0.958 ± 0.17	-0.371 ± 0.19
AGGCAGCAAUAUUACGGGUU	-3.33 ± 0.22	-1.01 ± 0.12
AGGCAGCAAUAUUACGGUCC	-1.61 ± 0.15	-1.64 ± 0.26
AGGCAGCAAUAUUACGGUGA	-1.37 ± 0.14	-0.711 ± 0.11
AGGCAGCAAUAUUACGGUGG	-3.05 ± 0.16	-2.88 ± 0.23
AGGCAGCAAUAUUACGUAGA	-2.33 ± 0.15	-0.171 ± 0.11
AGGCAGCAAUAUUACGUAUA	-3.08 ± 0.15	-1.56 ± 0.12
AGGCAGCAAUAUUACGUGCU	-2.46 ± 0.12	-1.5 ± 0.1
AGGCAGCAAUAUUACGUUGC	-4.18 ± 0.36	-2.13 ± 0.29
AGGGAGCAAUAUUACGAUAA		-2.23 ± 0.42
AGGGAGCAAUAUUACGAUCG	-2.68 ± 0.27	-2.19 ± 0.46
